Results on seven sequences are retold here after the supplement of paper PMC11316812.

± gives the standard deviation of the averaged measurements.

One data set concerns hTERT-HMEC. In words: percentage of EdU-negative (G0-arrested) nuclei per well, 72 h; higher = more G0 arrest. As to conditions: reference: sequence is the full UniProt precursor, the tested protein was the secreted form or ectodomain.
A further data set deals with MCF7. Described as above. The settings on record: reference: sequence is the full UniProt precursor, the tested protein was the secreted form or ectodomain.
Where [1] appears, read: protein concentration 0.023015 µM.
The mark [2] stands for this setting: protein concentration 0.23015 µM.
[3] abbreviates: protein concentration 0.0225 µM.
Setting [4] is: protein concentration 0.0357143 µM.
Where [5] appears, read: protein concentration 0.357143 µM.
Setting [6] is: protein concentration 0.03125 µM.
Where [7] appears, read: protein concentration 0.3125 µM.
Setting [8] is: protein concentration 0.010165 µM.
Where [9] appears, read: protein concentration 0.10165 µM.
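Also: secreted proteins added to cultured cells, EdU pulse at the end, nuclei found by Hoechst imaging, EdU status from nuclear versus surrounding ring intensity ratio, PBS as neutral control.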

Take “MLAVGCALLAALLAAPGAALAPRRCPAQEVARGVLTSLPGDSVTLTCPGVEPEDNATVHWVLRKPAAGSHPSRWAGMGRRLLLRSVQLHDSGNYSCYRAGRPAGTVHLLVDVPPEEPQLSCFRKSPLSNVVCEWGPRSTPSLTTKAVLLVRKFQNSPAEDFQEPCQYSQESQKFSCQLAVPEGDSSFYIVSMCVASSVGSKFSKTQTFQGCGILQPDPPANITVTAVARNPRWLSVTWQDPHSWNSSFYRLRFELRYRAERSKTFTTWMVKDLQHHCVIHDAWSGLRHVVQLRAQEEFGQGEWSEWSPEAMGTPWTESRSPPAENEVSTPMQALTTNKDDDNILFRDSANATSLPVQDSSSVPLPTFLVAGGSLAFGTLLCIAIVLRFKKTWKLRALKEGKTSMHPPYSLGQLVPERPRPTPVLVPLISPPVSPSSLGSDNTSSHNRPDARDPRSPYDISNTDYFFPR”: the “percentage of EdU-negative” value in the data set with hTERT-HMEC (setting [1]) worked out at 5.6 ± 1.1%; in the data set on hTERT-HMEC (setting [2]), 5.05 ± 0.44%; with MCF7 (setting [1]), 25.4 ± 3%; in the data set with MCF7 (setting [2]), 24.4 ± 1.3%.
With “MLCLGWIFLWLVAGERIKGFNISGCSTKKLLWTYSTRSEEEFVLFCDLPEPQKSHFCHRNRLSPKQVPEHLPFMGSNDLSDVQWYQQPSNGDPLEDIRKSYPHIIQDKCTLHFLTPGVNNSGSYICRPKMIKSPYDVACCVKMILEVKPQTNASCEYSASHKQDLLLGSTGSISCPSLSCQSDAQSPAVTWYKNGKLLSVERSNRIVVDEVYDYHQGTYVCDYTQSDTVSSWTVRAVVQVRTIVGDTKLKPDILDPVEDTLEVELGKPLTISCKARFGFERVFNPVIKWYIKDSDLEWEVSVPEAKSIKSTLKDEIIERNIILEKVTQRDLRRKFVCFVQNSIGNTTQSVQLKEKRGVVLLYILLGTIGTLVAVLAASALLYRHWIEIVLLYRTYQSKDQTLGDKKDFDAFVSYAKWSSFPSEATSSLSEEHLALSLFPDVLENKYGYSLCLLERDVAPGGVYAEDIVSIIKRSRRGIFILSPNYVNGPSIFELQAAVNLALDDQTLKLILIKFCYFQEPESLPHLVKKALRVLPTVTWRGLKSVPPNSRFWAKMRYHMPVKNSQGFTWNQLRITSRIFQWKGLSRTETTGRSSQPKEW”, the “percentage of EdU-negative” value in the data set on hTERT-HMEC (setting [3]) is 5.27 ± 0.17%; with hTERT-HMEC (protein concentration 0.225 µM) it was 4.77 ± 0.22%; in the data set with MCF7 (setting [3]), 26.2 ± 0.97%; in the data set with MCF7 (protein concentration 0.225 µM), 24.78 ± 0.22%.
Regarding “MLCLLLTLGVALVCGVPAMDIPQTKQDLELPKLAGTWHSMAMATNNISLMATLKAPLRVHITSLLPTPEDNLEIVLHRWENNSCVEKKVLGEKTENPKKFKINYTVANEATLLDTDYDNFLFLCLQDTTTPIQSMMCQYLARVLVEDDEIMQGFIRAFRPLPRHLWYLLDLKQMEEPCRF”, the “percentage of EdU-negative” value with hTERT-HMEC (setting [4]) was found to be 5.01 ± 0.051%; with hTERT-HMEC (setting [5]), 5.65 ± 0.33%; in the data set with MCF7 (setting [4]), 24.5 ± 2.6%; in the data set on MCF7 (setting [5]), 23 ± 1.3%.
On to “MLDWRLASAHFILAVTLTLWSSGKVLSVDVTTTEAFDSGVIDVQSTPTVREEKSATDLTAKLLLLDELVSLENDVIETKKKRSFSGFGSPLDRLSAGSVDHKGKQRKVVDHPKRRFGIPMDRIGRNRLSNSRG”, for which the “percentage of EdU-negative” value in the data set with hTERT-HMEC (setting [3]) is 5.01 ± 0.71%; with hTERT-HMEC (protein concentration 0.225 µM) it was 5.5 ± 0.22%; in the data set with MCF7 (setting [3]), 23.9 ± 2%; with MCF7 (protein concentration 0.225 µM), 24.2 ± 1.3%.
Take “MLFSALLLEVIWILAADGGQHWTYEGPHGQDHWPASYPECGNNAQSPIDIQTDSVTFDPDLPALQPHGYDQPGTEPLDLHNNGHTVQLSLPSTLYLGGLPRKYVAAQLHLHWGQKGSPGGSEHQINSEATFAELHIVHYDSDSYDSLSEAAERPQGLAVLGILIEVGETKNIAYEHILSHLHEVRHKDQKTSVPPFNLRELLPKQLGQYFRYNGSLTTPPCYQSVLWTVFYRRSQISMEQLEKLQGTLFSTEEEPSKLLVQNYRALQPLNQRMVFASFIQAGSSYTTGEMLSLGVGILVGCLCLLLAVYFIARKIRKKRLENRKSVVFTSAQATTEA [Q9ULX7]”: the “percentage of EdU-negative” value in the data set on hTERT-HMEC (setting [6]) came to 4.94 ± 0.17%; in the data set with hTERT-HMEC (setting [7]), 4.94 ± 0.42%; in the data set on MCF7 (setting [6]) it was 24.3 ± 0.34%; with MCF7 (setting [7]) it was 24.31 ± 0.24%.
As to “MLGARLRLWVCALCSVCSMSVLRAYPNASPLLGSSWGGLIHLYTATARNSYHLQIHKNGHVDGAPHQTIYSALMIRSEDAGFVVITGVMSRRYLCMDFRGNIFGSHYFDPENCRFQHQTLENGYDVYHSPQYHFLVSLGRAKRAFLPGMNPPPYSQFLSRRNEIPLIHFNTPIPRRHTRSAEDDSERDPLNVLKPRARMTPAPASCSQELPSAEDNSPMASDPLGVVRGGRVNTHAGGTGPEGCRPFAKFI [Q9GZV9]”, the “percentage of EdU-negative” value in the data set with hTERT-HMEC (setting [8]) is 4.81 ± 0.08%; in the data set with hTERT-HMEC (setting [9]) it was 12.96 ± 0.081%; in the data set on MCF7 (setting [8]), 24 ± 0.7%; in the data set on MCF7 (setting [9]), 27.2 ± 0.45%.
“MLGIWTLLPLVLTSVARLSSKSVNAQVTDINSKGLELRKTVTTVETQNLEGLHHDGQFCHKPCPPGERKARDCTVNGDEPDCVPCQEGKEYTDKAHFSSKCRRCRLCDEGHGLEVEINCTRTQNTKCRCKPNFFCNSTVCEHCDPCTKCEHGIIKECTLTSNTKCKEEGSRSNLGWLCLLLLPIPLIVWVKRKEVQKTCRKHRKENQGSHESPTLNPETVAINLSDVDLSKYITTIAGVMTLSQVKGFVRKNGVNEAKIDEIKNDNVQDTAEQKVQLLRNWHQLHGKKEAYDTLIKDLKKANLCTLAEKIQTIILKDITSDSENSNFRNEIQSLV”: the “percentage of EdU-negative” value was found to be 5.07 ± 0.45% in the data set on hTERT-HMEC (setting [4]), 5.88 ± 1.1% in the data set on hTERT-HMEC (setting [5]), 23.4 ± 1.9% with MCF7 (setting [4]) and 26.6 ± 0.71% in the data set with MCF7 (setting [5]).
